Reference: article PMC2926616 (Nucleic Acids Research, 2010)
Blank lines part the entries; values can stand above or below the binder they belong to.

Assays:
RAD51 = RAD51 (human, UniProt Q06609 1-339); assay: EMSA
Human RAD51 = target: T1, Human RAD51 (human, UniProt Q06609 1-339); assay: pull-down
T1 sequence (looked up): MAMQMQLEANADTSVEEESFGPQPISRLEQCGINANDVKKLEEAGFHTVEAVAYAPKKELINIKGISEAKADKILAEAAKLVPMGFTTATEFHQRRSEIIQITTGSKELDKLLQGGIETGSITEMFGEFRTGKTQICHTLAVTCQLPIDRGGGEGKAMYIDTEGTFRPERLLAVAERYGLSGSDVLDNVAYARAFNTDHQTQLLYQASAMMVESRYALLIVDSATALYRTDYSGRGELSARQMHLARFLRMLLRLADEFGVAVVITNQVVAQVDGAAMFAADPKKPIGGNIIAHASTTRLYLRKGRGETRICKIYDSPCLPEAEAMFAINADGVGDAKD

B1: 49-mer dsDNA (dsDNA)
DNA 1: GTCCCAGGCCATTACAGATCAATCCTGAGCATGTTTACCAAGCGCATTG
DNA 2: CAATGCGCTTGGTAAACATGCTCAGGATTGATCTGTAATGGCCTGGGAC
binding result (RAD51): binds

binding result (Human RAD51): binds
B2: Human GEMIN2 (natural protein, UniProt O14893 1-280, looked up)
chain: MRRAELAGLKTMAWVPAESAVEELMPRLLPVEPCDLTEGFDPSVPPRTPQEYLRRVQIEAAQCPDVVVAQIDPKKLKRKQSVNISLSGCQPAPEGYSPTLQWQQQQVAQFSTVRQNVNKHRSHWKSQQLDSNVTMPKSEDEEGWKKFCLGEKLCADGAVGPATNESPGIDYVQIGFPPLLSIVSRMNQATVTSVLEYLSNWFGERDFTPELGRWLYALLACLEKPLLPEAHSLIRQLARRCSEVRLLVDSKDDERVPALNLLICLVSRYFDQRDLADEPS
